Reference: US20260158160A1 (MACFARLANE BURNET INSTITUTE FOR MEDICAL RESEARCH AND PUBLIC …, published 2026)
Like-named read-outs stand apart in the source and are kept apart here.

Key:
[1] = target: human death receptor 5 (DR5) on cells (human, UniProt O14763 56-440); assay: cell-based or functional assay
[2] = target: T1, FcγRIIIa V158 on NF-κB-RE nanoluciferase reporter cells (UniProt P08637 17-254); assay: cell-based or functional assay
[3] = target: T1, FcγRIIIa V158 on NF-κB-RE …; assay: cell-based or functional assay; remark: listed apart in the source
[4] = target: T2, dimeric rsFcγRIIa (H131 allelic form) (UniProt P12318 34-217); assay: flow cytometry: Ramos-S cells opsonised with the ACE2-Fc protein, biotinylated dimeric rsFcγRIIa probe, streptavidin-APC
T2 construct: also called dimeric recombinant soluble FcγRIIa
T2 sequence: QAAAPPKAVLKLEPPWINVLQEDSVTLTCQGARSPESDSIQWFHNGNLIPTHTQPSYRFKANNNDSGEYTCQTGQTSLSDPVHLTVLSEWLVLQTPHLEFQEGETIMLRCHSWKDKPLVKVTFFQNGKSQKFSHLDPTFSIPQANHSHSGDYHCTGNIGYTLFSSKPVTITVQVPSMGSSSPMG

[5] = target: T3, SARS-CoV-2 spike protein expressed on Ramos-S cells (SARS-CoV-2, UniProt P0DTC2 14-1273); assay: flow cytometry on Ramos-S cells
T3 construct: whole, on cells; also called S protein; Ramos cells expressing transfected spike protein

T1 sequence (P08637 17-254 F176V limits assumed): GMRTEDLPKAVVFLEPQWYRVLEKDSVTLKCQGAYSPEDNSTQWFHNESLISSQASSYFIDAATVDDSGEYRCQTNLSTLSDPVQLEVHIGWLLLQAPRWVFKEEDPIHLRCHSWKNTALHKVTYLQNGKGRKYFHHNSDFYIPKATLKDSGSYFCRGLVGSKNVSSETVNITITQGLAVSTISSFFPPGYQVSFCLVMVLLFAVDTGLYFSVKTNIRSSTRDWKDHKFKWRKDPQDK

B1: TDR5-A2WT (antibody)
heavy: QVQLVQSGAEVKKPGASVKVSCKASGFNIKDTHMHWVRQAPGQRLEWIGRIDPANGNTEYDQKFQGRVTITVDTSASTAYMELSSLRSEDTAVYYCARWGTNVYFAYWGQGTLVTVSSASPTSPKVFPLSLDSTPQDGNVVVACLVQGFFPQEPLSVTWSESGQNVTARNFPPSQDASGDLYTTSSQLTLPATQCPDGKSVTCHVKHYTNPSQDVTVPCPVPPPPPCCHPRLSLHRPALEDLLLGSEANLTCTLTGLRDASGATFTWTPSSGKSAVQGPPERDLCGCYSVSSVLPGCAQPWNHGETFTCTAAHPELKTPLTANITKSGNTFRPEVHLLPPPSEELALNELVTLTCLARGFSPKDVLVRWLQGSQELPREKYLTWASRQEPSQGTTTFAVTSILRVAAEDWKKGDTFSCMVGHEALPLAFTQKTIDRLAG
light: DIQLTQSPSSLSASVGDRVTITCSASSSVSYMYWYQQKPGKAPKPWIYRTSNLASGVPSRFSGSGSGTDFTLTISSLQPEDFATYYCQQYHSYPPTFGGGTKVEIKRTVAAPSVFIFPPSDEQLKSGTASVVCLLNNFYPREAKVQWKVDNALQSGNSQESVTEQDSKDSTYSLSSTLTLSKADYEKHKVYACEVTHQGLSSPVTKSFNRGEC
B1 was tested, and the “death of Colo205 cells, EC50 as dilution of culture supernatant” value [1] was roughly 0.167 dilution.

B2: TDR5-A2HF (antibody)
heavy: QVQLVQSGAEVKKPGASVKVSCKASGFNIKDTHMHWVRQAPGQRLEWIGRIDPANGNTEYDQKFQGRVTITVDTSASTAYMELSSLRSEDTAVYYCARWGTNVYFAYWGQGTLVTVSSASPTSPKVFPLSLDSTPQDGNVVVACLVQGFFPQEPLSVTWSESGQNVTARNFPPSQDASGDLYTTSSQLTLPATQCPDGKSVTCHVKHYTNPSQDVTVPCPVPPPPPCCHPRLSLHRPALEDLLLGSEANLTCTLTGLRDASGATFTWTPSSGKSAVQGPPERDLCGCYSVSSVLPGCAQPWNHGETFTCTAAHPELKTPLTANITKSGNTFRPEVHLLPPPSEELALNELVTLTCLARGFSPKDVLVRWLQGSQELPREKYLTWASRQEPSQGTTTFAVTSILRVAAEDWKKGDTFSCMVGFEALPLAFTQKTIDRLAG
light: DIQLTQSPSSLSASVGDRVTITCSASSSVSYMYWYQQKPGKAPKPWIYRTSNLASGVPSRFSGSGSGTDFTLTISSLQPEDFATYYCQQYHSYPPTFGGGTKVEIKRTVAAPSVFIFPPSDEQLKSGTASVVCLLNNFYPREAKVQWKVDNALQSGNSQESVTEQDSKDSTYSLSSTLTLSKADYEKHKVYACEVTHQGLSSPVTKSFNRGEC
With B2 the “death of Colo205 cells, EC50 as dilution of culture supernatant” value [1] was greater than 0.00195 dilution.

B3: rituximab-WT (antibody, human IgG1, kappa)
heavy: not shown
light: QIVLSQSPAILSASPGEKVTMTCRASSSVSYIHWFQQKPGSSPKPWIYATSNLASGVPVRFSGSGSGTSYSLTISRVEAEDAATYYCQQWTSNPPTFGGGTKVEIKRTVAAPSVFIFPPSDEQLKSGTASVVCLLNNFYPREAKVQWKVDNALQSGNSQESVTEQDSKDSTYSLSSTLTLSKADYEKHKVYACEVTHQGLSSPVTKSFNRGEC
With B3 the “EC50 (read off the curve), FcγRIIIa reporter activation” value [2] was roughly 0.04 nM and the “EC50 (read off the curve), FcγRIIIa reporter activation” value [3] was roughly 0.03 nM.

B4: EflACE2-Fc-H429Y (Fc fusion)
chain: ETGSTIEEQAKYFLDKFNHEAEDLFYQSSLASWNYNTNITEENVQNMNNAGDKWSAFLKEQSTTAQMYPLQEIQNLTVKLQLQALQQNGSSVLSEDKSKRLNTILNTMSTIYSTGKVCNPDNPQECLLLEPGLNEIMANSLDYNERLWAWESWRSEVGKQLRPLYEEYVVLKNEMARANHYEDYGDYWRGDYEVNGVDGYDYSRGQLIEDVEHTFEEIKPLYEHLHAYVRAKLMNAYPSYISPIGCLPAHLLGDMWGRFWTNLYSLTVPFGQKPNIDVTDAMVDQAWDAQRIFKEAEKFFVSVGLPNMTQGFWEYSMLTDPGNVQKAVCHPTAWDLGKGDFRILMCTKVTMDDFLTAHHEMGHIQYDMAYAAQPFLLRNGANEGFHEAVGEIMSLSAATPKHLKSIGLLSPDFQEDNETEINFLLKQALTIVGTLPFTYMLEKWRWMVFKGEIPKDQWMKKWWEMKREIVGVVEPVPHDETYCDPASLFHVSNDYSFIRYYTRTLYQFQFQEALCQAAKHEGPLHKCDISNSTEAGQKLFNMLRLGKSEPWTLALENVVGAKNMNVRPLLNYFEPLFTWLKDQNKNSFVGWSTDWSPYADQSIKVRISLKSALGDRAYEWNDNEMYLFRSSVAYAMRQYFLKVKNQMILFGEEDVRVANLKPRISFNFFVTAPKNVSDIIPRTEVEKAIRMSRSRINDAFRLNDNSLEFLGIQPTLGPPNQPPVSGGGGSTHTCPPCPAPELLGGPSVFLFPPKPKDTLMISRTPEVTCVVVDVSHEDPEVKFNWYVDGVEVHNAKTKPREEQYNSTYRVVSVLTVLHQDWLNGKEYKCKVSNKALPAPIEKTISKAKGQPREPQVYTLPPSREEMTKNQVSLTCLVKGFYPSDIAVEWESNGQPENNYKTTPPVLDSDGSFFLYSKLTVDKSRWQQGNVFSCSVMYEALHNHYTQKSLSLSPGK
notes: also called EflACE2-Fc-H429Yoli; Yoli
B4: no binding (tested: 5 µg/ml (opsonising protein)) [4].

B5: CC40.8-WT (antibody)
heavy: not shown
light: SYELTQPPSVSVSPGQTARITCSGDALPKRYAYWYQQKSGQAPILVIYEDKKRPSGIPERLSGSKSGTVATLTISGAQVEDEADYYCYSTDSSGNHAVFGGGTQLTVLGQPKAAPSVFIFPPSDEQLKSGTASVVCLLNNFYPREAKVQWKVDNALQSGNSQESVTEQDSKDSTYSLSSTLTLSKADYEKHKVYACEVTHQGLSSPVTKSFNRGEC
B5: binds [5].
